The source of these data is paper PMC3680732.

The target in the data set is T1, HOT1 DBD (crystal) (human, UniProt Q6NT76 233-345).
T1 sequence: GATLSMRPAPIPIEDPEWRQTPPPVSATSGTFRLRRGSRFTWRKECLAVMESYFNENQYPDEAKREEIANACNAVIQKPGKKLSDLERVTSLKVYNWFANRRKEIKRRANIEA
In words: crystal structure.

B1: T1/T2 telomeric crystal duplex (dsDNA)
DNA 1: CTGTTAGGGTTAGGGTTAG
DNA 2: TCTAACCCTAACCCTAACA
As to B1, the binding result is “binds”.
